From patent publication US8614369B2, “Enzymes involved in triterpene synthesis” (Plant Bioscience Limited, priority 2007, dated 2013) come the findings set out here.

The nature of this assay: Activity of AsGT2 towards salicylate (radioactive TLC assay and LC-MS assay). In kind it is biochemical. Set-up: key: A “+” denotes activity. Particulars: acceptor substrate salicylate; sugar donor L-arabinose; recombinant AsGT2 expressed in E. coli. How it is done:
Radioactive assays with a complex acceptor substrate were used to detect low level activity with pure or enriched substrates. The assays contained 4 μl ^14C-UDP-glucose, 25 μl 50 mM potassium phosphate buffer pH 7.6, 0.25 μl 100 mM acceptor substrate in DMSO, 5 μl of the dialyzed protein preparation, and 3 μl 10 mM DTT. The reaction proceeded at 28 degrees Celsius for 2.5 hours shaking gently before stopping by the addition of 50 μl chloroform:methanol (2:1). The aqueous phase was extracted three more times with chloroform methanol and the solvent phases were pooled. The extracts were dried down at 60 degrees Celsius and resuspended in 40 μl of chloroform:methanol. The aqueous phase was dried down also and resuspended in water. A silica-gel TLC plate was loaded with 15 μl of the extracts and chromatographed with chloroform:methanol:water (13:6:1) against standards.
The acceptor substrates tested were β-amyrin-arabinoside, benzoic acid and salicylic acid. The sugars donors tested were D-glucose and L-arabinose.
To confirm the chemical structures of the products visualized by the radioactive assay a non-radioactive LC-MS assay was developed. […] Reactions were stopped by the addition of 100% methanol, which was then evaporated from the reaction at 50 degrees Celsius, and were analysed by LC/MS/MS using reversed-phase chromatography. […]

B1: AsGT2: family 1 glucosyltransferase from Avena strigosa (SEQ ID NO:6), expressed in E. coli and purified (protein, listed as Avena strigosa)
chain: MGAEWEHVSDIHVLLLPYPVQGHINPMLQFGKRLAHIGGVGVRCTLAITPYLLRQCQDPCPGAVHLVEISDGFDSAGFEEVGDVAAYLAGMESAGSRTLDELLRSEAEKGRPIHAVVYDAFLQPWVPRVARLHGAACVSFFTQAAAVNVAYSRRVGKIEEGLPAGFEAEDLPTFLTLPLPYQDMLLSQFVGLDAVDHVLVNSFHELQPQESAYMESTWGAKTVGPTVPSAYLDKRITDDVSYGFHLYTPMTATTKAWLDAQPPRSVTYVSFGSMATPGPTEMAEMAEGLHSSGKAFLWVVRASEASKIPDGFQERVGGRGLVVTWVAQLEVLAHGAIGCFVTHCGWNSTMEALGAGVPMVAVPQWSDQPTNAKFVEDVWCVGVRARRDPEGVVRREELERCIREVTGDDKYACNALDWKEKSKRAMSQGGSSDMNITEFLQALRRSRKSYEAKPIEPLLVGLDA
With B1, the “Activity of AsGT2 towards Salicylate, L-Ara” value is “+”.
